Assay results reported in PMC5477490.

Target: 3E1 Fab, P01857;P01834
Details: parent: est. 100; read off a plot

## full-length, wild-type HA from A/Washington/05/2011 (H1N1) HA2:D19A
  percent of parent: 100%

## full-length, wild-type HA from A/Washington/05/2011 (H1N1) HA1:H38S
  percent of parent: 97%

## full-length, wild-type HA from A/Washington/05/2011 (H1N1) HA2:Y34M
  percent of parent: 100%

## full-length, wild-type HA from A/Washington/05/2011 (H1N1) HA1:H18L
  percent of parent: 100%
